{"source": "the DeepSol protein solubility set"}
{"experiment": "soluble on expression in E. coli; label from the status in PepcDB or PDB records"}
{"sequence": "GMLTDMQRDSASSSTVTTEQIVYGALPLTTINEPECRAIAITSINGSATLSGVSGPMGDQTDADLLIQLRGWADAIVVGAETARKENYGPVVLPHGIKNQRQKLGRCGLPKLTLLSKSLYFDFSSELFSPDLPSELSPLVITQQPANNSEQWDQRLQKLIDVGVEVIVAPTSTNPLKIAFDALHARRLKKISIEGGPSVYRQALSLGIVDRLHLTIAPNIICPVESPLFGKISDDSFTTRLVLEMLSSSPNGLIFSRYKVIRDTLGNPTQ", "soluble on expression in E. coli": "soluble"}
{"sequence": "MAHHHHHHMQQENRHLSSADLFKKFTLQNVAQIANISNKEQSQIRGELTEQYPLLADFWEDIMPKKADIMLVRCHDQVHCVTLVSSQPEVLFFRHHNSPYIPHLKLLHKYPFILPRQQVDIGGCKYVVSGANVMCPGLTSEGGYITPGLAAGAIVAIHVEQKEHAIAVGRMLMSSEEIERVNNGPGIENIHHLGDGLWMNRVLSSSHIGAR", "soluble on expression in E. coli": "soluble"}
{"sequence": "MGSDKIHHHHHHMSTIEERIKEIEDEIKRTQYNKATEHHIGLLKAKIARLQMEARAHKGGGHYGFSIPKSGDATVALVGFPNVGKSSLLNVLTNSESEVGSYAFTTLKAIPGVMEYKGAEIQILDLPGIIENASYGAGRGREILSTVRSADLIVIVTDVETGGLDKIVKELYNSGIVVNRRRKNIEIKKTTSGGIRVHKPKNVDIDSEYIRQLMKEFKLVNADVYIREQVNEDDIIEAVQKNYVYIPSIVAVNKIDMNGAFDTSPLTRFGEVFKVSAKNRIGIDELREGIYRSLKLLRVYLRNKAGVVDFDKPLILTDGSTVRDVCRKINRSLIDSFRYAIISGKNRPIGEQRVGIDYPLLDEDIVTIISRN", "soluble on expression in E. coli": "not soluble"}
{"sequence": "MAHHHHHHMAEIHQDKTESAVSSSGILKNVVRHSPKVSSKEIEDSEIRIVKMAHEEENRKLQKMGKCAKDYTLPCPKFWKKKIMNKSENICIASSSYNGFCTPRQSFDNFTKSEKMKFETSCNVEWGCRNVVADACESGKRNYNEPCPEGFISQNDNTCMADLTVYDGLCNGQKIDFTHLTNDEKQNWSVACEAYWPCYIDCSLNNKALSTCPSNWKEINSYECIPPYSYNGPCKDTKNFKFFNELMKKKFEEKCKVTFVCTDLCEKNYRQECPLHWMKEGGYCLAPPSFNLCDRKKYLYSNLTQEEEKKKFEQECSVQWPCQKTSFCDMDWTAECPLNWVKEVPRQGRDQEGGDKYICTADSSLYRGRCAFISLPNGADEETKRELASTCDTPWPCSATGATAGAPEEGGPVPRSDSKIVERRNSAFTNGPVTFQGDVRTNGGPTYRVVDSQGDVSLADIMR", "soluble on expression in E. coli": "not soluble"}
{"sequence": "MRVLVLCTHNSARSQMAEAWLKHFARELGVDLEVHSAGTEKAFVKEEAKRVMAEVGLDLSGHFSKTLLEVPDPWDFGLVLTVCDQAKEACPAYPARTERRHVSFPDPTGKPLEEWRKVRDALGRMARFLVEALKEGRLPSDEELRQAARL", "soluble on expression in E. coli": "soluble"}
{"sequence": "MGIPSDFSNTGLTGFNVSSTKLVKIEQQYKGVKGKKFISPGGGKFVRIDDPGAVDSNGLRTADASNTSISLETGNTWLPRLHADGTLTCGGKCAWLECTNVTIPKNKRLWFRYAFLRFSSLPADSFSVLLCFPNDDTSVPPLPPYWICSVKELQENRGNINQTDWTECFVEIDKNADFHGTLRWVVATGHNLADQNSIPDNTRFTRPGCLLIDAIDIR", "soluble on expression in E. coli": "not soluble"}
{"sequence": "MHGNPMNIPPVSIAAAKAALIEQYADPTLRRRASMLWGTRGVGKSSIVRQVAAHYRVPLIDLRLTTIEPVDIRGAIYADENLAKTVWFPPEFLPSRDQPEGVLFLDELTAADQRLQISAYSLILDRRVGNYHLPDGWQVVAAGNASFHGAISHDMGTALADRMFHFNVQTAIDAFLNHAITQEFAPEVMAYLKIRPDKLDDTQAQLAGDHLIGASPRGWEDISNVLKSGLSDHAKRLFVQGRIGAANAAEFFGVLREIQAGTDVLKLLAARPGPETAALLPKSLDALYGMLYGLLAASTDKQTMARALEIIEQLPDIRSAAPLPIREAQTLAMELLMQRGLENGLESAILDSPAYASYAGRRQLEASDALEHHHHHH", "soluble on expression in E. coli": "not soluble"}
{"sequence": "MRIVEEMVGKEVLDSSAKVIGKVKDVEVDIESQAIESLVLGKGGISEGLGLSKGETIVPYEMVKKIGDKILLKGPEE", "soluble on expression in E. coli": "not soluble"}
{"sequence": "MGSDKIHHHHHHMNMAQVAVALAKLAGIRKALDLALNDDHKKAGRLPIQNFLIEEVGRYFTGAATQLSILKKELPDLFGDFVEMPVEPKTEMAKTSTEGAAQYRYARSQLEVLARDIDQIFELRANSELAPPLIAAATTRRVFISHGRAPDWREVQAYVEKDIGLPTLELAQEPNQGRTILAKLMEASGQCDSAVIVMTGDDLDAAGQARARENVIHEIGFFQGKYGLGRVCLLHEEGVSIPSNIHGLVYTPFPKGMVSACFGVLTRELKAFY", "soluble on expression in E. coli": "not soluble"}
{"sequence": "MGSDKIHHHHHHMFWFKNALIYRLTKSLDWSVENLQSQLQQCAYSPCQQSDMSRFGWSNPLRESESLSFCVGKQLLLVAHKEEKILPAQVIKRELEERIEQLEQKENRKLKKIEKQALKDDIVATLLPRAFSKNQHTALWIDTENNLIYIDTASTKRAEDCLALLRKSLGSLPVVPLAFANEPSLVMTNWVKENSPQWLTVLEEAELKGSQDQAVIRCKQQVLDSEEMIGLLNSGKYITNLSLNWEEHLSFTLNEDASLKRLKFADQIREQNDDISKEDFAQRFDADFVLMTGILAKLTENLLDEFGGEKERL", "soluble on expression in E. coli": "not soluble"}
{"sequence": "MVAELAGQQDPGLGAFSCQEARRAWLDRHGNLDEAVEECVRTRRRKVQELQSLGFGPEEGSLQALFQHGGDVSRALTELQRQRLEPFRQRLWDSGPEPTPSWDGPDKQSLVRRLLAVYALPSWGRAELALSLLQETPRNYELGDVVEAVRHSQDRAFLRRLLAQECAVCGWALPHNRMQALTSCECTICPDCFRQHFTIALKEKHITDMVCPACGRPDLTDDTQLLSYFSTLDIQLRESLEPDAYALFHKKLTEGVLMRDPKFLWCAQCSFGFIYEREQLEATCPQCHQTFCVRCKRQWEEQHRGRSCEDFQNWKRMNDPEYQAQGLAMYLQENGIDCPKCKFSYALARGGCMHFHCTQCRHQFCSGCYNAFYAKNKCPEPNCRVKKSLHGHHPRDCLFYLRDWTALRLQKLLQDNNVMFNTEPPAGARAVPGGGCRVIEQKEVPNGLRDEACGKETPAGYAGLCQAHYKEYLVSLINAHSLDPATLYEVEELETATERYLHVRPQPLAGEDPPAYQARLLQKLTEEVPLGQSIPRRRK", "soluble on expression in E. coli": "soluble"}
{"sequence": "MSKIIGIDLGTTNSCVAVLEGGEVKVIPNPEGNRTTPSVVAFKNGERLVGEVAKRQAITNPNTIISIKRHMGTDYKVEIEGKQYTPQEISAIILQYLKSYAEDYLGEPVTRAVITVPAYFNDAQRQATKDAGRIAGLEVERIINEPTAAALAYGLDKEEDQTILVYDLGGGTFDVSILELGDGVFEVKATAGDNHLGGDDFDQVIIDYLVNQFKQEHGIDLSKDKMALQRLKDAAEKAKKELSGVTQTQISLPFISANENGPLHLEMTLTRAKFEELSAHLVERTMGPVRQALQDAGLTPADIDKVILVGGSTRIPAVQEAIKRELGKEPHKGVNPDEVVAIGAAIQGGVIAGEVKDVVLLDVTPLSLGIETMGGVFTKLIERNTTIPTSKSQVFTTAADNQTTVDIHVLQGERPMAADNKSLGRFQLTGIPPAPRGVPQIEVTFDIDANGIVHVRAKDLGTNKEQSITIKSSSGLSEEEIQRMIKEAEENAEADRKRKEAAELRNEAD", "soluble on expression in E. coli": "soluble"}
{"sequence": "MRACLKCKYLTNDEICPICHSPTSENWIGLLIVINPEKSEIAKKAGIDIKGKYALSVKE", "soluble on expression in E. coli": "soluble"}
{"sequence": "MALKPTIYKFRIALSDMNNDYYDSKNLTIALHPSEKPQRMLARILAFCLNAQKDLEFTKGLSTTEEPDLWHVADDQSITHWIEIGEPEPDRIKKASRLAKQVKVYTYNTKAPVWWEKMSGKFSMLPVSVESFDYDAIDMICQHLDRGTNLSVMITGTSIFVDVNDQHVEVTVKELQSHDAP", "soluble on expression in E. coli": "not soluble"}
{"sequence": "MSLHNVVISGTGLFTPANSISNEELVESFNTYVHQFNSDNAAAIERGEVQALTESNAAFIEKASGIKSRFVMDKDGILDPQRMAPRLPERSNDEWSVLCQMAVAAAEQALQRAGKTAADIDGVIVACSNLQRAYPAIAIEVQAALGIQGFGFDMNVACSSATFGIQAACNSVQLGQARAILMVNPEVCTGHLNFRDRDSHFIFGDAATAVVIERADLATSEHQFDIVSTKLLTQFSNNIRNNFGFLNRAAEEGIGARDKLFVQEGRKVFRDVCPMVAELIAAHLEENQLNVSDVKRFWLHQANLSMNHLIVKKLLCREASVEEAPVILDTYANTSSAGSVIAFHKYQDDLASGSLAVLSSFGAGYSIGSVLLRKREGHHHHHH", "soluble on expression in E. coli": "soluble"}
{"sequence": "MKRYRTLLFDVDDTILDFQAAEALALRLLFEDQNIPLTNDMKAQYKTINQGLWRAFEEGKMTRDEVVNTRFSALLKEYGYEADGALLEQKYRRFLEEGHQLIDGAFDLISNLQQQFDLYIVTNGVSHTQYKRLRDSGLFPFFKDIFVSEDTGFQKPMKEYFNYVFERIPQFSAEHTLIIGDSLTADIKGGQLAGLDTCWMNPDMKPNVPEIIPTYEIRKLEELYHILN", "soluble on expression in E. coli": "not soluble"}
{"sequence": "MLKIGPYEFSSRLLLGTGKYPSLDVQKEAVEASGAEILTFAVRRMNIFSPEQPNFLEQLDLSKYKLLPNTAGAKTAEEAVRIARLAKASGLCDMIKVEVIGCDKTLLPDPIETLKAAEMLLEEGFIVLPYTSDDVVLAKRLEELGCHAIMPGASPIGSGQGIINPLNLSFIIEQANVPVIVDAGIGGPADAALAMELGADGVLLNTAVSGAADPVKMAKAMKLAVEAGRLGYEAGRIPKKRYASASSPTEGMSVV", "soluble on expression in E. coli": "not soluble"}
{"sequence": "MQTLKSDIRNRILSAAKEQFMQRGYLKTSMREIADAVDVGVGNLYNYFENKDELFCVILRPVSDALERMLQEHHGAKGADIMLICSEEYLKSAVDEYISLINKHGELMKILLFHSQGSSLETFREDYTNRSTEIVKTWFAEMKEKHPEINVVVSDFMIHLQAVWMFTLFEEMLKHAIDSKEMEYIVHEYILFEIQGWRALLRV", "soluble on expression in E. coli": "not soluble"}
{"sequence": "MKNQLGQLALEQAKTFGGKLEVQPKVDIKTKHDLSIAYTPGVASVSSAIAKDKTLAYDLTTKKNTVAVISDGTAVLGLGDIGPEAAMPVMEGKAALFKAFAGVDAIPIVLDTKDTEEIISIVKALAPTFGGINLEDISAPRCFEIEQRLIKECHIPVFHDDQHGTAIVVLAAIFNSLKLLKKSLDEVSIVVNGGGSAGLSITRKLLAAGATKVTVVDKFGIINEQEAAQLAPHHLDIAKVTNREFKSGTLEDALEGADIFIGVSAPGVLKAEWISKMAARPVIFAMANPIPEIYPDEALEAGAYIVGTGRSDFPNQINNVLAFPGIFRGALDARAKTITVEMQIAAAKGIASLVPDDALSTTNIIPDAFKEGVAEIVAKSVRSVVLKS", "soluble on expression in E. coli": "not soluble"}
{"sequence": "MKFLTFVNRVDWWLNVKKLLMGNEAIAYGALEAGVSFATGYPGTPSTEVIETIARLKPEVFAEWAPNEKVALEEAAGVSYAGLRSLVTMKCVGLNVAADPLMSLAYSGVEGGLVILVADDPGPHTSQTEQDDRYYGKLALLPVLEPYDPQEAHDLIIYAYELSEKYKVPIIFRTTTRVNHTTADVEVGEFKELKREPKFKKDIERYVRASMEGNRKRHKWLNETLKRIEEEFNTLRFNWIEGEGRVGIIVEGAPYNYVKEVVPQIEEDFKILKLSTPHPLPRKLVVEFLRSVDVALVVEEGAPFLEEEIKVVAYEEGLNVPIYGKRTGHLPLEGELTPRLVRNAILKLLGKEREEVKLPKEVEEAKALAPKRPPVMCPGCPHRGTYRALLDALRELGYGKFDIPIHGDIGCYALSLLPPLEAIWTEFVMGASISLANGQSVAMGKKIVATIGDSTFFHNGIQPLIDAVYKDLDVLVIILDNRTTAMTGHQPHPGTGGSETGRKFREIDIESVVRGIGVKYVKTVDPYNLKETKEAIKEAMKVKGPAVIIAKRECVIPVIRRGEIGEIPVVVEDRCTGCKACILLTGCPALVYEPEKKKVRIDPLICTGCGVCNQLCPFDAI", "soluble on expression in E. coli": "not soluble"}
